From the RNAGym collection of RNA variant scans (doi:10.1073/pnas.2313332121)
Fewer inactive variants are shown than the library holds.

B1: TPR 5TU (parent)
chain: GGAUCUUCUCGAUCUAACAAAAAAGACAAAUCUGCCACAAAGCUUGAGAGCAUCUUCGGAUGCAGAGGCGGCAGCCUUCGGUGGCGCGAUAGCGCCAACGUUCUCAACUAUGACACGCAAAACGCGUGCUCCGUUGAAUGGAGUUUAUCAUG

Variants of: B1
Assay: polymerase ribozyme fitness, log enrichment relative to wild type (log ratio); higher = more active; in vitro selection for triplet polymerase activity
How it was run: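 Input and output libraries were sequenced on Illumina after a single in vitro selection round, run in triplicate on PCR-built, transcribed mutant libraries of each subunit of a heterodimeric triplet polymerase ribozyme. Selection annealed libraries to a biotinylated primer, the partner subunit and triplets, incubated them frozen at −7 °C, then gel-excised extended constructs for streptavidin-bead capture and RT-PCR. Genotypes with ≥10 input reads and ≥1 read per output were kept. Fitness is the logarithm, taken in base 2, of genotype enrichment divided by wild-type enrichment, using inverse-variance-weighted replicate averages.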
With GGAUCUUCUCGCUCUAACAAAAAAGACAAAUCAGCCACAAAUCUUGAGAGCAUCUUCGGGUGCAGAGGCGGCAGCCUUCGGUGGCGCGAUAGGGCCAACGUUCUCAACUAUGACACGCAAAACGCGUGCUCCGUUGAAUGGAGUUUAUCAUG [A12C U33A G42U A60G C93G] the “polymerase ribozyme fitness (log ratio)” value was at most -4.2.
For GGAUCUUCUCGCUCUAACAAAAAAGACAAAUCUGCCACAAAGCUUUAGAGCAUCUUCGGAUGCAGAGGCGGCAGCCUUCGGUGGCGCGAUAGCGCCAACGUUCUCAACUAUGUCACGUAAAACGCGUGCUCCGUUGAAUGGAGUUUAUCAUG [A12C G46U A113U C118U], the “polymerase ribozyme fitness (log ratio)” value was -3.95.
With GGAUCUUCUCGCCCUAACAAAAAAGCGAAAUCUGCCACAAAGCUUGAGAGCAUCUUCGGAUGCAGAGGCAGCAGCCUUCGGUGGCGCGAUAGCGCGAACGUUCUCAACUAUGACACGCAAAACGCGUGCUCCGUUGAAUGGAGUUUAUCAUG [A12C U13C A26C C27G G70A C96G] the “polymerase ribozyme fitness (log ratio)” value was at most -4.2.
With GGAUCUUCUCGGUCUUACAAAAAAGACAAAUCUGCCACAAAGCUUGAGAGCAUUUUCGGAUGCAGAGGCGGCGGCCUUCGGUUCCGCGAUAGCGGCAACGUUCUCAACUAUGACACGCAAAACGCGUGCUCCGUUGAAUCGAGUUUAUCAUG [A12G A16U C54U A73G G83U G84C C95G G140C] the “polymerase ribozyme fitness (log ratio)” value was at most -4.2.
For GGAUCUUCUCGGUCUAAUAAAAAAGACAAAUCUGCCACAAAGCUUGAGAGCAUCUUCGGAUGCAGAGGCGGCAGCCUUCGGUUGCGCGGUAGCGCUAACGUUCUCAACUAUGACACGCAAAACGCGUGCUCCGUUGAAUGGAGUUUAUCAUG [A12G C18U G83U A89G C96U], the “polymerase ribozyme fitness (log ratio)” value was -1.73.
For GGAUCUUCUCGGUAUAACAAAAAAGACAAAUCUGCCAUAAAGAUUGAGAGCAUCUACGGAUGCAGAGGCGGCAGCCUUCGGUGGUGCGAUAGCGCCAACGUUGUCAACUAUGACACGCAAAACGCGUGCUCCGUUGAAUGGAGUUUAUCAUG [A12G C14A C38U C43A U56A C85U C103G], the “polymerase ribozyme fitness (log ratio)” value was at most -4.2.
In the case of GGAUCUUCUCGGUCUAACAAAAAAGACAAAUCUGCCACCAAGCUUGAGAGCAUCUUCGGAUGCAGAGGCGGCAGCCUUCGGUGACGCGAUAGCGCCAACGUUCUCAACUAUGACACGCAAAACGCGUGCUCCGUUGACUGGAUUUUACCAUG [A12G A39C G84A A138C G143U U148C], the “polymerase ribozyme fitness (log ratio)” value is reported as at most -4.2.
For GGAUCUUCUCGCUCUAACAAAAAAGACAAAUCUGCCACAAAGCUUGAGAGCAACUUCGGAUGCAGAGGCGGCAGCCUUCGGUGGCGCGAUAGCGCCAACGUUCUCAACUAUGACACGCAAAACGGGUGCUCCGUUGAAUGGAGUUUAUCUGG [A12C U53A C125G A150U U151G], the “polymerase ribozyme fitness (log ratio)” value was at most -4.2.
For GGAUCUUCUCGGUCUAACAAAAAAGACAAAUCUGCCGCAAAGCUUGAGAGCAUAUUUGGAUGCAGAGGCGACAGCCUUCGGUGGCGCGAUAGCGCCAACGUUCUCAACUAUGACGCGCAAAACGCGUGCUCCGUUGAAUGGAGUUUAUCAUG [A12G A37G C54A C57U G71A A115G], the “polymerase ribozyme fitness (log ratio)” value was at most -4.2.
For GGAUCUUCUCGCUCUAACAAAAAAGACAAAUCUGCCACAAAGCUUGAGAGCAUCUUCGGAUGCAGAGGCGGCAGCCUUCGGUGGCGCGAUACCGCCAACGUUCUCAACUAUGACACGCAAAACGCGUGCUCCGUUGAAUGGAGUUUAUCAUG [A12C G92C], the “polymerase ribozyme fitness (log ratio)” value was -0.73.
With GGAUCUUCUCGGUCUAACAAGAAAGACAAAUCUGCCACAAAGUUUGAGAGCAUCAUCGGAUGCAGAGGCGGCAGCCUUCGGUUGCGCGAUAGCGCCAACGUUCUCAACUAUGACACGCAAAACGCGUGCUCCGUUGAAUGGAGGUUAUCAUG [A12G A21G C43U U55A G83U U144G] the “polymerase ribozyme fitness (log ratio)” value was at most -4.2.
For GGAUCUUCUCGGUCUAACAACAGAGACAAAUCUGCCACAAAGCUUGAGAGCAUCUUCGGAUGCAGAGGCGGCAGCGUUCGGUGGCGCGAUAGCGCCAACGUUCUCAACUAUGACAGGCAAAACGCGUGCUCCAUUGAAUGGAGUUUAUCAUG [A12G A21C A23G C76G C116G G133A], the “polymerase ribozyme fitness (log ratio)” value was at most -4.2.
In the case of GGAUCUUCUCGGUCUAACAAAAAAGACAAAUCUGCCACAACGCUUGAGAGCAUCUUCGGAUGCAGGGGCGGCAGCCUUUGGUGGCCCGAUAGCGCCAACGUUAUAAGCUAUGACACGCAAAACGCGUGCUCCGUUGAAUGGAGUUUAUCAUG [A12G A41C A66G C79U G86C C103A C105A A107G], the “polymerase ribozyme fitness (log ratio)” value is reported as at most -4.2.
In the case of GGAUCUUCUCGGUCUAACAAAAAAGACAGAUCUGCCACAAAGCUUGAGAGCAUCAUCGGAUGCAGAGGCGGCAGCCUUCGGUGGUGCGAUAGCGCUAACGUUCUUAACUAUGACACGCAAAACGCGUGCUCCGUUGAAUGGAGUUUAUCAUG [A12G A29G U55A C85U C96U C105U], the “polymerase ribozyme fitness (log ratio)” value is reported as at most -4.2.
For GGAUCUUCUCGGUCUAACCAAAAAGACAAAUCUGCCACAGAGCUCGAGAGCAUCUUCGGAUGCAGAGGCGGCAGCCUUCGGUGGCGCGAUAACGCCAACGUUCUCAACUAUGACACGCAAAACGCGUGCUCCGUUGAAUGAAGUUUAUCAUG [A12G A19C A40G U45C G92A G141A], the “polymerase ribozyme fitness (log ratio)” value was at most -4.2.
For GGAUCUUCUCGGUAUAACAAAAAAGACAAAUCUGCCACAAAGCUUGAGAGCAUCUUAGGAUGCAGAGGCGGCAGCCUUCGGUGGGGCGAUAGCGCCAACGUUCUCAACUAUGACACGCAAAACGCGUGCUCCGUUGAAUGGAGUUUAUCAUG [A12G C14A C57A C85G], the “polymerase ribozyme fitness (log ratio)” value was -3.75.
In the case of GGAUCUUCUCGGUCUAACAAAAAAGACAAAUCUGCCACAGAGCAAGAGAGCAUCUUCGGAUGCAGAGGCGGCAGCCUUCGGUGGCGCGAUAGGGCCAACGUUCUCAACUAUGACACGCAUAACGCGUGCUCCGUUGAAUGUAGUUUAUCAUG [A12G A40G U44A U45A C93G A120U G141U], the “polymerase ribozyme fitness (log ratio)” value is reported as at most -4.2.
With GGAUCUUCUCGGUCUAACAAAAAAGAAAAAUCUGCCACAAAGCUUGAGAGCAUCUUCGGAUGCAGAGGCGGCAGCAUUCGGUGGCGCGAUAGCGCCAACGUUCUCAACUAUGACACGCAAAACGCGUGCUCCGUUGAAUGGAGUUUCACAUG [A12G C27A C76A A147C U148A] the “polymerase ribozyme fitness (log ratio)” value was at most -4.2.
In the case of GGAUCUUCUCGGUCUUACAAAAAAGACAAAUCUGCCACAAAGCUUGAGAACAUCUUCGGAUGCAGAGGCGGCAGCCUUCGGUCGAGCGACAGCGCCAACGUUCUCAACUAUGACACGCAAAACGCGUGCUCCGUUGAAUGGAGUUUAUCAUG [A12G A16U G50A G83C C85A U90C], the “polymerase ribozyme fitness (log ratio)” value is reported as at most -4.2.
